# According to the RNAGym collection of RNA variant scans (doi:10.1073/pnas.2313332121):
# This sample holds only a part of the variants without activity.
# B1: TPR 5TU (parent)
# chain: GGAUCUUCUCGAUCUAACAAAAAAGACAAAUCUGCCACAAAGCUUGAGAGCAUCUUCGGAUGCAGAGGCGGCAGCCUUCGGUGGCGCGAUAGCGCCAACGUUCUCAACUAUGACACGCAAAACGCGUGCUCCGUUGAAUGGAGUUUAUCAUG
# Variants of: B1
# Assay: polymerase ribozyme fitness, log enrichment relative to wild type (log ratio); higher = more active; in vitro selection for triplet polymerase activity
# Method in brief: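 Frozen incubation at −7 °C formed the core of a single, triplicate in vitro selection round applied to PCR-built, transcribed mutant libraries of each subunit of a heterodimeric triplet polymerase ribozyme. Extended constructs were gel-excised, captured with streptavidin beads and amplified by RT-PCR, and input and output libraries were Illumina-sequenced with a filter of ≥10 input reads and ≥1 read per output. Fitness is the logarithm of genotype enrichment relative to wild-type enrichment, with inverse-variance-weighted replicate averaging, and the logarithm is base 2.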
row,Variant,polymerase ribozyme fitness (log ratio)
1,A17G C63U G88C,≤ -4.2
2,A17U U61G C76G,≤ -4.2
3,C18G C38U C72U,-0.0428
4,A17U G50A G67U G74A U134G,≤ -4.2
5,C18G U82C C85A A142C,-2.92
6,A17U C32U A52C G84C U90C U109G,≤ -4.2
7,A19G A49U U55A C96U,-1.84
8,C18A A20U G25C G83A C87U U145A C149A,≤ -4.2
9,A19G A26G,-3.57
10,C18U G34C U44A C75G C96A C99G A119C,≤ -4.2
11,A17G U33G G50U A52U G86C C105U A106C C125A,≤ -4.2
12,A17U C18U A22C,-1.32
13,A17G C69A U82G G86C G117U G140C U145A,≤ -4.2
14,C18U U55A A73G G86A G94C,≤ -4.2
15,A19C G59A C76G C87U,≤ -4.2
16,A19C G83U,0.141
17,A17U U77G C87G G92C A119C,≤ -4.2
18,C18U A113G C123A,-3.22
19,A19G G25U G50A C93U A120G,≤ -4.2
20,A19G C93U,-1.99
21,A17U G42C G59A C69U C96G G141A U146C,≤ -4.2
22,A19C G67C,≤ -4.2
23,A17U A49G G86U,-1.95
24,A19G U53A A91G C95U U104A A121C G126C U135G,≤ -4.2

row,Variant,polymerase ribozyme fitness (log ratio)
1,A19G C38U A40C C79A G86U C96G,≤ -4.2
2,A19C G59A G84U A98G A115U,-3.52
3,A19G A40C G48U U61A G74C C87A G126U,≤ -4.2
4,A17U A40U A113C A115C C131U,≤ -4.2
5,C18G C32U A37G A60G C75U C96U,≤ -4.2
6,A17U A24U U56G,-0.773
7,A19G C27U G50A,-4.19
8,A17U A37U C96A C99U A113C U134G G152C,-4.19
9,C18U C36U C75A C79U C118A C131U,≤ -4.2
10,A19G A89C C105G,-1.99
11,A19C A28C A52G U56A G83A A142C,≤ -4.2
12,A19C C35U A52C U53A C79A A97U A98G C118A U139G A147G,≤ -4.2
13,A17U A60C G88C,≤ -4.2
14,A19C C63U A120G U145A,0.504
15,A17G A39G C57A C96A,-2
16,A17U C85U,-1.68
17,A17U C54U,-0.241
18,C18G C35U U55A G62U G68U C75U C96U,≤ -4.2
19,A19U A23U A26U C54U A60G A120U U151G,≤ -4.2
20,A19G G92A G124U,-3.61
21,A19G U102G,-3.38
22,A19U A20U C85U C118U,-2.63
23,C18U C38G A52G U101G,-1.69
24,C18U C36A C38A U55A G84U,≤ -4.2

row,Variant,polymerase ribozyme fitness (log ratio)
1,C18G C57U G59A G80A G86U,-2.45
2,C18U A19C A30C A47U U56A G67C G70A C85G C87A C96U A142C,≤ -4.2
3,A19G C79G,≤ -4.2
4,A17U A28G G86C A106C C116A A119U,≤ -4.2
5,A17U G126A,0.557
6,A17U C108U,-3.48
7,C18G C54U U61G C87U C95U,-3.85
8,C18U G42A C85U C103U,-4.11
9,C18U A26U U31A U53A G94U,≤ -4.2
10,A17U A20G A40C G126U,-0.583
11,A17U A37C U61A C93A C99A C125A U144A,≤ -4.2
12,C18U A60G G62A G86A C149U,-3.44
13,C18G A19C U33G C36U G46A C87U A110G,≤ -4.2
14,A19G U45G U90G G124A,≤ -4.2
15,A19U A22G C27G A30U G88C C95U,≤ -4.2
16,A17G A41G C54U,0.908
17,A17U C35U A40U G92U,-2.32
18,A19C A91U,-3.83
19,C18U G48U C85A U144C,-2.83
20,A17G G86A C93U A97U,0.0217
21,A19C U33A U55A U77G C123G,≤ -4.2
22,A17U C18U G94C A115U,-3.41
23,A17U A24U A52G C57U C96G G140A,≤ -4.2
24,A19U A21C A120C,-1.83

row,Variant,polymerase ribozyme fitness (log ratio)
1,A19C U82G U109G C116A,-0.158
2,C18A C93U A113U A119C G140U,-4.1
3,C18U G58A,-0.517
4,A17G A22G A24U G46A A47C C123A C129A,≤ -4.2
5,A19C C54G G94U U111A A115C C125U,≤ -4.2
6,A19C U56A C85G U148A,-3.88
7,A19U A21U A39G C43A U45A A91G,≤ -4.2
8,A17U C35U A66C C72U G80A C93A,≤ -4.2
9,C18G C96U A119U,-0.786
10,A19C A22U C57G C87U G94U C103G U104G C129A,≤ -4.2
11,A17G C36U,-3.9
12,C18U C32U G83U,-3.14
13,C18G G58C G81A,-0.953
14,A17U A28G G34C A64C C79G U90G,≤ -4.2
15,A17G C93G C108G,-4.11
16,A17G C75A C87A A91C A115U G140U,≤ -4.2
17,C18G U55A C85G,-2.84
18,A19U A23U U61A C99A U101G G136C A137C U145A,≤ -4.2
19,C18A A20G A24C C27G U82C G126U,≤ -4.2
20,A17G G62U C87U A122G U127G C132G,≤ -4.2
21,A17U C51U C95U C103A,-1.47
22,A17U U127A,-3.29
23,C18A A73U G86A A110G,≤ -4.2
24,A19G A91C,-4.15

row,Variant,polymerase ribozyme fitness (log ratio)
1,A19C A66G,-3.95
2,A17U U44A U55G G136A,≤ -4.2
3,A17U A37C G46A C85G C114U,≤ -4.2
4,C18U C87U,-1.47
5,A19G C35U G58A C85A G143A,-3.66
6,C18U A60U G92U C93U C95U C125U,-4.09
7,C18A A20U A47G A52C G65A G83U U101C G136U,≤ -4.2
8,A19U A20U A24G G42C U55A C57A U78C G86U A119U,≤ -4.2
9,C18G G141C,-1.51
10,C18G A20C U56G G94A,-1.51
11,C18U A52C G86A C99U U146G,-4.02
12,C18A G50A G68A C96G C99U G136A,≤ -4.2
13,A17G C27A A29U U55A A64G C79A C93U A98G G100U G136A,≤ -4.2
14,C18G A40U A47U U101G,-0.397
15,A17G A39G C79G A89U C96G,-4.19
16,A19G C35U C75G C129A U135C U145G,≤ -4.2
17,A17G A30U G83A U101C G128U,≤ -4.2
18,A17U U53A,-0.974
19,C18U U144C C149U,-4.09
20,A17U C76A G83A C87G G124A A150C,≤ -4.2
21,A19G A20G C43U A47C U55G C87U C105U U145G,≤ -4.2
22,A17U G62U G84U,-2.48
23,A19U A22G G67U C93A G126A C131A,≤ -4.2
24,C18U U45C A120C,-0.849

row,Variant,polymerase ribozyme fitness (log ratio)
1,C18U G42C,≤ -4.2
2,C18U G92U A97G U146A,-2.16
3,A19C C35A,-3.08
4,C18G A26C A107G,≤ -4.2
5,C18A G83A A107C A110C,≤ -4.2
6,A17G C57U C69A G100A,≤ -4.2
7,A19G G48A G62U A73G C96A A119G,≤ -4.2
8,A19G A26U G84A A147G,-3.45
9,A17G A23U C79G,≤ -4.2
10,A17U A20G C63G U134G,-3.43
11,C18G G84A,-1.41
12,C18G A21U,-0.776
13,A19G C75U C93A,-3.68
14,A19C C32U A37G A52G C87G A89U U90A C125G U139G,≤ -4.2
15,C18U A52C U145G,-2.09
16,A17G C27G C43U C87G A89C U109A A147U,≤ -4.2
17,A17U A40U A52G G59A C99G U135C A138G,≤ -4.2
18,A17U A28C U31A,-3.71
19,C18U C35A A39U G50U U55G C108U,≤ -4.2
20,A19G C35U C51U C96U,-1.35
21,C18U A21G C99G A147U,-0.0193
22,C18G A22G C27U A41U A49C C57A C93G G140C,-4.12
23,C18G A21G G48U U82A G100A G136A,≤ -4.2
24,A19U A20U C57G G58A G88U G92C C125A C131U U148C C149A,≤ -4.2

row,Variant,polymerase ribozyme fitness (log ratio)
1,C18U A26C C38U U78G A98U U145G U151A,≤ -4.2
2,A17G A39U C54G A64C A89C U90G A122U U139C U144A,≤ -4.2
3,A19U A26U,-2.56
4,A17G C35U C85G A98C A121U C123A,-1.35
5,C18G A20C A22U U55G G62A,-3.57
6,C18U G140U,-3.29
7,C18U U31C A89C C93A G140U,≤ -4.2
8,A19G A49G A52C U55A,-4.18
9,A19G A26U C36G A73U C87A G88C A97G,≤ -4.2
10,A17U G34U C43U C63A C87A A106C C108A,≤ -4.2
11,A19G G81C G92U U134G,-2.69
12,C18U,-0.399
13,C18G,-0.169
14,C18A,-0.302
15,A19U A26C A40U C96A A121C,-2.54
16,C18G A19U G25U A89U G94A C131U,-3.92
17,A17U G59A C87U C93A G143U U146G,≤ -4.2
18,C18G A21U C93U G141U,0.314
19,C18U A22G A30G G34U G42U U77A C96A,≤ -4.2
20,A19G A49G U56A A66G G67C C108U G136A C149A G152U,≤ -4.2
21,A17U A41C G83C A97U U127A A138U A150C,≤ -4.2
22,A19C A22U C38G G58C C85U U102A,-1.87
23,A17G A21U A49C G59C G74U C85G C116U U134A,≤ -4.2
